Measurements taken from the supplement of paper PMC7877785.
± gives the uncertainty stated by the source.

Experiment: self-splicing fitness, log relative to wild type (ln ratio); higher = more splicing; Tetrahymena group I intron in knt gene, E. coli kanamycin selection, DiMSum; sequences stand for … in CUCUCU…GGAGGGAAAAGUUAUCAGGCAUGCACCUGGUAGCUAGUCUUUAAACCAAUAGAUUGCAUCGGUUUAAAAGGCAAGACCGUCAAAUUGCGGGAAAGGGGUCAACAGCCGUUCAGUACCAAGUCUCAGGGGAAACUUUGAGAUGGCCUUGCAAAGGGUAUGGUAAUAAGCUGACGGACAUGGUCCUAACCACGCAGCCAAGUCCUAAGUCAACAGAUCUUCUGUUGAUAUGGAUGCAGUUCACAGACUAAAUGUCGGUCGGGGAAGAUGUAUUCUUCUCAUAAGAUAUAGUCGGACCUCUCCUUAAUGGGAGCUAGCGGAUGAAGUGAUGCAACACUGGAGCCGCUGGGAACUAAUUUGUAUGCGAAAGUAUAUUGAUUAGUUUUGGAGUACUCGUGGUCG
Method in brief: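 The eight P1ex-region nucleotides of an intron in the knt kanamycin-resistance gene on pET-22b(+) were all randomised and the library put into E. coli BL21(DE3). Six replicate transformations were grown overnight at 37°C or 30°C on LB agar with or without 25 μg/mL kanamycin, together with 100 μg/mL carbenicillin, 50 μM IPTG and 0.2% rhamnose. Colonies were pooled and amplicon-sequenced on an Illumina HiSeq 2500. Fitness from DiMSum is the error-weighted combination of wild-type-normalised replicate fold changes, kanamycin over none.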

Sequence	self-splicing fitness (ln) (30 °C)	self-splicing fitness (ln) (37 °C)
AACUAGCAAUAUUACGUCGA	-0.769 ± 0.087	-0.975 ± 0.09
AACUAGCAAUAUUACGUGAA	-1.86 ± 0.081	-1.51 ± 0.11
AACUAGCAAUAUUACGUUUC	-3.35 ± 0.18	-2.58 ± 0.25
AAGAAGCAAUAUUACGAAGA	-3.29 ± 0.19	-2.15 ± 0.19
AAGAAGCAAUAUUACGAAGU	-2.48 ± 0.16	-2.12 ± 0.21
AAGAAGCAAUAUUACGAGGU	-3.38 ± 0.33	-2.42 ± 0.42
AAGAAGCAAUAUUACGAUCG	-1.23 ± 0.12	-0.674 ± 0.14
AAGAAGCAAUAUUACGCAAG	-2.01 ± 0.13	-1.15 ± 0.13
AAGAAGCAAUAUUACGCCAC		-2.7 ± 0.48
AAGAAGCAAUAUUACGCGUC	-2.48 ± 0.27	-1.21 ± 0.3
AAGAAGCAAUAUUACGCUAC	-2.18 ± 0.24	-1.93 ± 0.44
AAGAAGCAAUAUUACGGACG	-0.677 ± 0.071	0.0583 ± 0.11
AAGAAGCAAUAUUACGGCGC	-0.183 ± 0.19	-0.28 ± 0.25
AAGAAGCAAUAUUACGGGAG	-2.62 ± 0.12	-1.47 ± 0.11
AAGAAGCAAUAUUACGUAGU	-2.52 ± 0.16	-1.14 ± 0.15
AAGAAGCAAUAUUACGUAUC	-2.31 ± 0.16	-0.892 ± 0.18
AAGAAGCAAUAUUACGUCCA	-0.641 ± 0.13	0.0432 ± 0.14
AAGAAGCAAUAUUACGUCGC	-3.47 ± 0.19	-2.2 ± 0.16
AAGAAGCAAUAUUACGUGAG	-1.35 ± 0.046	-0.828 ± 0.075
AAGAAGCAAUAUUACGUGUC	-3.38 ± 0.15	-2.09 ± 0.17
AAGAAGCAAUAUUACGUGUU	-2.15 ± 0.13	-1.61 ± 0.13
AAGAAGCAAUAUUACGUUGC	-4.64 ± 0.31	-3.65 ± 0.32
AAGAAGCAAUAUUACGUUUU	-3.3 ± 0.11	-1.33 ± 0.091
AAGCAGCAAUAUUACGAACC	-2.26 ± 0.14	-0.526 ± 0.15
AAGCAGCAAUAUUACGACGG	-2.19 ± 0.088	-1.17 ± 0.09
AAGCAGCAAUAUUACGACUG	-2.67 ± 0.12	-1.8 ± 0.14

Sequence	self-splicing fitness (ln) (30 °C)	self-splicing fitness (ln) (37 °C)
AAGCAGCAAUAUUACGAUCC	-1.73 ± 0.24	0.0481 ± 0.24
AAGCAGCAAUAUUACGCACU	0.0285 ± 0.094	0.781 ± 0.12
AAGCAGCAAUAUUACGCAGG	-2.34 ± 0.14	-1.13 ± 0.11
AAGCAGCAAUAUUACGCCAU	-2.13 ± 0.19	-1.69 ± 0.28
AAGCAGCAAUAUUACGCCCG	-0.844 ± 0.21	1.38 ± 0.32
AAGCAGCAAUAUUACGCCUA	0.0257 ± 0.11	-0.183 ± 0.13
AAGCAGCAAUAUUACGCUAC	-2.96 ± 0.24	-2.31 ± 0.24
AAGCAGCAAUAUUACGCUAU	-2.17 ± 0.14	-0.814 ± 0.13
AAGCAGCAAUAUUACGCUCU	-1.55 ± 0.098	-0.549 ± 0.11
AAGCAGCAAUAUUACGCUGA	-3.07 ± 0.11	-1.98 ± 0.11
AAGCAGCAAUAUUACGCUUA	-1.9 ± 0.15	-1.24 ± 0.14
AAGCAGCAAUAUUACGCUUU	-4.53 ± 0.2	-2.87 ± 0.22
AAGCAGCAAUAUUACGGAUC	-1.81 ± 0.093	-1 ± 0.1
AAGCAGCAAUAUUACGGAUU	-0.723 ± 0.055	-0.000157 ± 0.077
AAGCAGCAAUAUUACGGUUC	-2.24 ± 0.097	-2.02 ± 0.12
AAGCAGCAAUAUUACGUAAG	-1.49 ± 0.074	-1.02 ± 0.088
AAGCAGCAAUAUUACGUCAG	-3.06 ± 0.2	-2.43 ± 0.23
AAGCAGCAAUAUUACGUGAC	-3.33 ± 0.14	-2.38 ± 0.18
AAGCAGCAAUAUUACGUGGA	-3.63 ± 0.21	-1.44 ± 0.11
AAGCAGCAAUAUUACGUGUG	-2.67 ± 0.083	-1.92 ± 0.11
AAGGAGCAAUAUUACGAACU	-1.63 ± 0.15	0.581 ± 0.21
AAGGAGCAAUAUUACGAGUC	-3.2 ± 0.47	-2.05 ± 0.23
AAGGAGCAAUAUUACGAUUU	-0.545 ± 0.12	0.0878 ± 0.15
AAGGAGCAAUAUUACGCCAA	-4.19 ± 0.46	-3.11 ± 0.3
AAGGAGCAAUAUUACGCGUA	-3.11 ± 0.28	-1.29 ± 0.17
AAGGAGCAAUAUUACGCUCU	-3.15 ± 0.18	-3.85 ± 0.42

Sequence	self-splicing fitness (ln) (30 °C)	self-splicing fitness (ln) (37 °C)
AAGGAGCAAUAUUACGCUUC		-1.88 ± 0.39
AAGGAGCAAUAUUACGGACC	-2.55 ± 0.17	-2.97 ± 0.33
AAGGAGCAAUAUUACGGAUA	-3.9 ± 0.35	-1.99 ± 0.29
AAGGAGCAAUAUUACGGCGG	-4.57 ± 0.3	-2.12 ± 0.32
AAGGAGCAAUAUUACGGCUU	-2.58 ± 0.25	-1.64 ± 0.28
AAGGAGCAAUAUUACGUAUA	-2.76 ± 0.21	-2.85 ± 0.29
AAGGAGCAAUAUUACGUCAC		-1.45 ± 0.46
AAGGAGCAAUAUUACGUCCG	-1.79 ± 0.2	-1.03 ± 0.28
AAGGAGCAAUAUUACGUGUA		-2.29 ± 0.27
AAGGAGCAAUAUUACGUUAA	-3.12 ± 0.25	-1.69 ± 0.19
AAGGAGCAAUAUUACGUUUC	-3.26 ± 0.43	-2.26 ± 0.43
AAGUAGCAAUAUUACGAAAG	-2.94 ± 0.27	-2.17 ± 0.25
AAGUAGCAAUAUUACGAACU	-0.525 ± 0.1	0.139 ± 0.12
AAGUAGCAAUAUUACGAGUC	-2.53 ± 0.18	-2.47 ± 0.3
AAGUAGCAAUAUUACGAGUG	-3.16 ± 0.18	-2.03 ± 0.19
AAGUAGCAAUAUUACGAUAC	-3.92 ± 0.28	-1.71 ± 0.25
AAGUAGCAAUAUUACGCACC	-1.16 ± 0.12	-0.367 ± 0.2
AAGUAGCAAUAUUACGCAUU	-2.16 ± 0.14	-0.921 ± 0.14
AAGUAGCAAUAUUACGCCAA	-2.53 ± 0.24	-1.55 ± 0.23
AAGUAGCAAUAUUACGGCGA	-0.41 ± 0.11	-0.0374 ± 0.11
AAGUAGCAAUAUUACGGGUG	-3.43 ± 0.17	-1.14 ± 0.12
AAGUAGCAAUAUUACGGUGC		-2.76 ± 0.32
AAGUAGCAAUAUUACGUAAC	-1.51 ± 0.13	-2.24 ± 0.24
AAGUAGCAAUAUUACGUAGU	-3.59 ± 0.19	-2.32 ± 0.21
AAGUAGCAAUAUUACGUGAA	-2.36 ± 0.12	-1.78 ± 0.13
